Assay results reported in publication PMC7395514.

Target: Celsr3 (UniProt Q91ZI0)
Assay: co-immunoprecipitation, both in same cell
Settings: reference: Fzd3 wild type; sites T598

binding against the reference: weaker
Substance: Frizzled3 (Fzd3) (from UniProt Q61086) Fzd3 T598A
